According to article PMC9246715, “Bacillus subtilis biofilm matrix components target seed oil bodies to promote growth and anti-fungal resistance in melon” (Nature Microbiology, 2022):

Molecular target: the molecule itself
Assay: thioflavin T fluorescence (polymerization kinetics) + TEM; purified TasA 0.4 or 0.2 mg/ml in buffer (20 mM Tris, 50 mM NaCl, pH 7) or seed apoplastic fluid, 20 µM ThT, 30 °C, shaking

B1: amyloid protein TasA (natural protein, B. subtilis, UniProt P54507 28-261, looked up)
chain: AFNDIKSKDATFASGTLDLSAKENSASVNLSNLKPGDKLTKDFQFENNGSLAIKEVLMALNYGDFKANGGSNTSPEDFLSQFEVTLLTVGKEGGNGYPKNIILDDANLKDLYLMSAKNDAAAAEKIKKQIDPKFLNASGKVNVATIDGKTAPEYDGVPKTPTDFDQVQMEIQFKDDKTKDEKGLMVQNKYQGNSIKLQFSFEATQWNGLTIKKDHTDKDGYVKENEKAHSEDKN
notes: TasA, amyloid protein of the extracellular matrix of Bacillus subtilis biofilms; also called purified TasA
binding result: binds
